This is an account of results in US20070059806, “Nucleic acid molecules, polypeptides, antibodies and compositions containing same useful for treating and detecting influenza virus infection” (Yeda Research and Development Co., Ltd. at the Weizmann …, published 2007).

The target in data set [1] is Hemagglutinin on intact virus A/Port Chalmers/1/73 (H3N2) (Influenza A virus) (UniProt P03438+P03438). The data set is described as follows: cell_activity.
For data set [2], the target named is Influenza hemagglutinin fragment HA91-261 (globular region) (Influenza A virus (A/Port …, UniProt Q1PUD9 SEQ:1-171)). Kind of data set: ELISA. Particulars: tags: N-terminal 6xHis (pQE30, E. coli, Ni-NTA purified).
Influenza hemagglutinin fragment HA91-261 (globular region) (Influenza A virus, sequence (Q1PUD9 107-277): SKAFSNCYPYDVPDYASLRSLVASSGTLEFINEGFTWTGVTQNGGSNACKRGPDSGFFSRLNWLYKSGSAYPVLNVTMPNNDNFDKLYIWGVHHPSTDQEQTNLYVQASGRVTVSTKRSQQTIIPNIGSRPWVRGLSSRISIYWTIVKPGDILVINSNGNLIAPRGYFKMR

Consider “AATTAACCCTCACTAAAGGGCTGAGTCTCAAAACCGCAATACACTGGTTGTATGGTCGAATAAGTTAA [A22]”, for which the activity in data set [1] was found to be 70%.
AATTAACCCTCACTAAAGGG (ssDNA) [T3 primer negative control]: the binding result in data set [2] (label: biotin) was “no binding”.

B1: A22 (ssDNA)
DNA: AATTAACCCTCACTAAAGGGCTGAGTCTCAAAACCGCAATACACTGGTTGTATGGTCGAATAAGTTAA
As to B1, in data set [2], the binding result is “binds”.

B2: A21 (ssDNA)
DNA: AATTAACCCTCACTAAAGGGCGCTTATTTGTTCAGGTTGGTCTTCCTATTATGGTCGAATAAGTTAA
On to B2, for which the binding result in data set [2] is reported as “binds”.
